Data from patent publication US20030088057.

Experiments:
AKRASAA = molecular target: T1, AKRASAA
T1 chain: AKRASAA

AKRASPA = molecular target: T2, AKRASPA
T2 chain: AKRASPA

AARASAA = molecular target: T3, AARASAA
T3 chain: AARASAA

RKKKSAA = molecular target: T4, RKKKSAA
T4 chain: RKKKSAA

AKRESAA = molecular target: T5, AKRESAA
T5 chain: AKRESAA

ARKASAA = molecular target: T6, ARKASAA
T6 chain: ARKASAA

AKRKSAA = molecular target: T7, AKRKSAA
T7 chain: AKRKSAA

KKAASAA = molecular target: T8, KKAASAA
T8 chain: KKAASAA

AAKKSAA = molecular target: T9, AAKKSAA
T9 chain: AAKKSAA

AAAASKR = molecular target: T10, AAAASKR
T10 chain: AAAASKR

AKRPSAA = molecular target: T11, AKRPSAA
T11 chain: AKRPSAA

AAKRSAA = molecular target: T12, AAKRSAA
T12 chain: AAKRSAA

AKAASAA = molecular target: T13, AKAASAA
T13 chain: AKAASAA

PKRASAA = molecular target: T14, PKRASAA
T14 chain: PKRASAA

EKRASAA = molecular target: T15, EKRASAA
T15 chain: EKRASAA

AKRASEA = molecular target: T16, AKRASEA
T16 chain: AKRASEA

KKRKSAA = molecular target: T17, KKRKSAA
T17 chain: KKRKSAA

KKRASAA = molecular target: T18, KKRASAA
T18 chain: KKRASAA

ARRASAA = molecular target: T19, ARRASAA
T19 chain: ARRASAA

B1: γ-PAK activated by autophosphorylation in the presence of Cdc42(GTPγS) (protein)
chain: SDNGELEDKPPAPPVRMSSTIFSTGGKDPLSANHSLKPLPSVPEEKKPRNKIISIFSGTEKGSKKKEKERPEISPPSDFEHTIHVGFDAVTGEFTGMPEQWARLLQTSNITKLEQKKNPQAVLDVLKFYDSNTVKQKYLSFTPPEKDGFPSGAPALNTKVSETSAVVTEEDDDDEEAAPPVIAPRPDHTKSIYTRSVIDPIPAPVGDSHVDSGAKSSDKQKKKTKMTDEEIMEKLRTIVSIGDPKKKYTRYEKIGQGASGTVFTATDVALGQEVAIKQINLQKQPKKELIINEILVMKELKNPNIVNFLDSYLVGDELFVVMEYLAGGSLTDVVTETCMDEAQIAAVCRECLQALEFLHANQVIHRDIKSDNVLLGMEGSVKLTDFGFCAQITPEQSKRSTMVGTPYWMAPEVVTRKAYGPKVDIWSLGIMAIEMVEGEPPYLNENPLRALYLIATNGTPELQNPEKLSPIFRDFLNRCLEMDVEKRGSAKELLQHPFLKLAKPLSSLTPLIMAAKEAMKSNR
rel rate (%), Cdc42-activated (KKRKSAA = 100) (AKRASAA): 189% | rel rate (%), Cdc42-activated (KKRKSAA = 100) (AKRASPA): 3% | rel rate (%), Cdc42-activated (KKRKSAA = 100) (AARASAA): 56% | rel rate (%), Cdc42-activated (KKRKSAA = 100) (RKKKSAA): 3% | rel rate (%), Cdc42-activated (KKRKSAA = 100) (AKRESAA): 295% | rel rate (%), Cdc42-activated (KKRKSAA = 100) (ARKASAA): 9% | rel rate (%), Cdc42-activated (KKRKSAA = 100) (AKRKSAA): 158% | rel rate (%), Cdc42-activated (KKRKSAA = 100) (KKAASAA): 3% | rel rate (%), Cdc42-activated (KKRKSAA = 100) (AAKKSAA): 0% | rel rate (%), Cdc42-activated (KKRKSAA = 100) (AAAASKR): 0% | rel rate (%), Cdc42-activated (KKRKSAA = 100) (AKRPSAA): 11% | rel rate (%), Cdc42-activated (KKRKSAA = 100) (AAKRSAA): 0% | rel rate (%), Cdc42-activated (KKRKSAA = 100) (AKAASAA): 3% | rel rate (%), Cdc42-activated (KKRKSAA = 100) (PKRASAA): 184% | rel rate (%), Cdc42-activated (KKRKSAA = 100) (EKRASAA): 151% | rel rate (%), Cdc42-activated (KKRKSAA = 100) (AKRASEA): 88% | rel rate (%), Cdc42-activated (KKRKSAA = 100) (KKRKSAA): 100% | rel rate (%), Cdc42-activated (KKRKSAA = 100) (KKRASAA): 181% | rel rate (%), Cdc42-activated (KKRKSAA = 100) (ARRASAA): 134%

B2: Inactive γ-PAK (protein)
chain: B1 chain
activity relative to the activated forms (all peptides): <5% of the activity of the activated forms with all peptides
